# Legend:
# FGF2 [1] = target: T1, FGF2 (Homo sapiens, UniProt P09038 P09038:135-288); experiment: inhibition; SPR inhibition of FGF2-FGFR1alpha(IIIc); each 0.1 uM; settings: tags: Peprotech
# Protocol: BIAcore2000 manufactured by BIAcore was used for the measurement. As directed in BIAcore Company's protocol, Protein A (21181, manufactured by PIERCE) was immobilized on a CM5 sensor chip. About 1,000 RU of human FGFR1α (IIIc), R2α (IIIc), R3 (IIIc), R4 (manufactured by R&D Systems) fused with the Fc portion of IgG (manufactured by R&D systems) was each immobilized thereon. As analyte, a mixture of FGF2 (0.1 μM), heparin (0.1 μM) (manufactured by Pfizer) and aptamer (0.15 μM) was flown. Before an inhibitory test, a mixture of FGF2 and heparin was confirmed to bind to 4 kinds of receptors. […] A sensorgram showing that the aptamer shown by aptamer ID 1 inhibits binding of FGF2 and FGFR1α(IIIc), 2α(IIIc), 3(IIIc), 4 is shown in FIG. 2.
# In addition, the inhibitory rate against each of the 4 kinds of receptors was determined. The inhibitory rate was determined with the maximum binding amount of the FGF2 and heparin mixture as 0, and the binding amount with an injection buffer alone as 100. The binding amount here means the RU value of the peak top of sensorgram. The inhibitory rate was calculated. […] The inhibitory rate of other aptamers was not more than 50%.
# To enhance FGF2-binding activity, stability, drug deliverability and the like, the nucleic acids shown by aptamer IDs 3(1)-3(40), aptamer IDs 4 and 4(1)-4(4), aptamer ID 5 and aptamer ID 6 were chemically synthesized based on the aptamer shown in SEQ ID NO: 3. Here, the aptamer shown by aptamer ID 4 is the aptamer shown by aptamer ID 3(19) wherein one G(M) at the 5′-terminal and one C(M) at the 3′-terminal have been deleted. The aptamer shown by aptamer ID 5 is the aptamer shown by aptamer ID 3(19) wherein one G(M) has been added at the 5′-terminal and one C(M) has been added at the 3′-terminal. The aptamer shown by aptamer ID 6 is the aptamer shown by aptamer ID 3(19) wherein A(M) alone has been added at the 5′-terminal. These nucleic acids were produced by chemical synthesis.
# FGF2 [2] = target: T1, FGF2; experiment: cell_activity; HUVEC proliferation, FGF2 0.58 nM; settings: tags: Peprotech
# Protocol: Human umbilical vein endothelial cells (HUVEC) were seeded in a 96 well flat bottom plate at 5×10³ cells per well, and cultured overnight using a medium EGM-2 Bullet Kit for endothelial cells (CC-3162 manufactured by Lonza) containing 2% fetal bovine serum and growth factors. Thereafter, the medium was discarded, the cells were washed twice with PBS buffer, and a mixture of the aptamer shown by aptamer ID 3(21) (5, 2.5, 1, 0.5 nM) and FGF2 (final concentration 0.5 nM), dissolved in a medium exclusively for endothelial cells containing 2% fetal bovine serum, was added. After 72 hr, viable cell number was examined using Cell Counting Kit-8. For the measurement of absorbance, a microplate reader (450 nm) was used. One sample was measured at n=3. As a positive control, anti-FGF2 antibody Anti-FGF, basic (Ab-3) Mouse mAb (3H3) (manufactured by Calbiochem) were used. With the OD value per well obtained by the addition of FGF2 alone and culture of the cells for 3 days as inhibitory activity 0%, and that of the cell obtained by FGF2 free culture for 3 days as inhibitory activity 100%, the inhibitory activity of the aptamer was calculated from the OD value per well obtained by culturing with the addition of a mixture of FGF2 and the aptamer. As a result, it was shown that the aptamer shown by aptamer ID 3(21) has a high inhibitory activity against FGF2.
# By a method similar to the above except that the 96 well flat bottom plate was changed to a collagen-coated one, the activity of various aptamers was evaluated. The concentration of FGF2 added was 0.58 nM. As a negative control RNA, Macugen (registered trade mark) sequence without addition of PEG, and with C6 modification of the 5′-terminal and idT modification of the 3′-terminal was used.
# T1 sequence (P09038 135-288, one chain of several): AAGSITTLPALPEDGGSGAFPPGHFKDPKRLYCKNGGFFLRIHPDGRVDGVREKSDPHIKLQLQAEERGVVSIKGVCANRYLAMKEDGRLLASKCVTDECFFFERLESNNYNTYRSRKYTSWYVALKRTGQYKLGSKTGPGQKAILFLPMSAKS
Binder,activity (FGF2 [1]),IC50 (FGF2 [2])
"GGGAUACUAGGGCAUUAAUGUUACCAGUGUAGUCCC (ssRNA, all C and U 2'-F; 2'-OMe at G1,G2,G3,A4,A9,G10,G11,A14,A17,A18,G20,A23,A26; other purines 2'-OH; 3' idT) [aptamer ID 3(8)]",84%,27 nM
"GGGAUACUAGGGCAUUAAUGUUACCAGUGUAGUCCC (ssRNA, 2'-F at U8,U16,U21,U28,U30; 2'-OH at G12,G27,G29; all others 2'-OMe; 5' PEG 80K (GL4-800TS)-C6; 3' idT) [aptamer ID 3(36)]",98%,
"GGGAUACUAGGGCAUUAAUGUUACCAGUGUAGUCCC (ssRNA, 2'-F at U8,U16,U21,U28,U30; 2'-OH at G12,G27,G29; all others 2'-OMe; PS between U28 and G29) [aptamer ID 3(32)]",91%,4 nM
"GGGAUACUAGGGCAUUAAUGUUACCAGUGUAGUCCC (ssRNA, 2'-F at U8,U16,U21,G27,U28,U30; 2'-OH at G12,G29; all others 2'-OMe) [aptamer ID 3(26)]",99%,3 nM
"GGGAUACUAGGGCAUUAAUGUUACCAGUGUAGUCCC (ssRNA, all C and U 2'-F; 2'-OMe at A23; other purines 2'-OH) [aptamer ID 3(6)]",78%,
"GGGAUACUAGGGCAUUAAUGUUACCAGUGUAGUCCC (ssRNA, 2'-OMe at G1,G2,G3,A4,U5,A9,G10,G11,A14,A17,A18,G20,A23,A26; other C and U 2'-F; other purines 2'-OH) [aptamer ID 3(17)]",88%,
"GGGAUACUAGGGCAUUAAUGUUACCAGUGUAGUCCC (ssRNA, 2'-F at U8,U16,U21,U28,G29,U30; 2'-OH at G12,G27; all others 2'-OMe) [aptamer ID 3(27)]",99%,3.7 nM
"GGGAUACUAGGGCAUUAAUGUUACCAGUGUAGUCCC (ssRNA, 2'-OMe at G1,G2,G3,A4,A9,G10,G11,A14,U15,U16,A17,A18,U19,G20,A23,A26; other C and U 2'-F; other purines 2'-OH) [aptamer ID 3(13)]",88%,15 nM
"GGGAUACUAGGGCAUUAAUGUUACCAGUGUAGUCCC (ssRNA, 2'-F at U8,U16,U21,U28,U30; 2'-OH at G12,G27,G29; all others 2'-OMe; PS between A26 and G27) [aptamer ID 3(30)]",99%,3.3 nM
"GGGAUACUAGGGCAUUAAUGUUACCAGUGUAGUCCC (ssRNA, all C and U 2'-F; 2'-OMe at G1,G2,G3,A4; other purines 2'-OH) [aptamer ID 3(2)]",89%,
"GGGAUACUAGGGCAUUAAUGUUACCAGUGUAGUCCC (ssRNA, 2'-F at U8,G12,U16,U21,U28,U30; 2'-OH at G27,G29; all others 2'-OMe) [aptamer ID 3(25)]",90%,5.1 nM
"GGGAUACUAGGGCAUUAAUGUUACCAGUGUAGUCCC (ssRNA, 2'-OMe at G1,G2,G3,A4,A9,G10,G11,A14,A17,A18,G20,A23,C24,C25,A26; other C and U 2'-F; other purines 2'-OH) [aptamer ID 3(15)]",86%,14 nM
"GGGAUACUAGGGCAUUAAUGUUACCAGUGUAGUCCC (ssRNA, 2'-F at U8,U16,U21,U28,U30; 2'-OH at G12,G27,G29; all others 2'-OMe; PS between G27 and U28) [aptamer ID 3(31)]",91%,10 nM
"GGGAUACUAGGGCAUUAAUGUUACCAGUGUAGUCCC (ssRNA, 2'-F at U8,U16,U21,U28,U30; G27 DNA (2'-H); 2'-OH at G12,G29; all others 2'-OMe) [aptamer ID 3(24)]",90%,7.3 nM
"GGGAUACUAGGGCAUUAAUGUUACCAGUGUAGUCCC (ssRNA, 2'-F at U8,U16,U21,U28,U30; 2'-OH at G12,G27,G29; all others 2'-OMe) [aptamer ID 3(18)]",89%,2.6 nM
"GGGAUACUAGGGCAUUAAUGUUACCAGUGUAGUCCC (ssRNA, all C and U 2'-F; 2'-OMe at G10; other purines 2'-OH) [aptamer ID 3(4)]",89%,
"GGGAUACUAGGGCAUUAAUGUUACCAGUGUAGUCCC (ssRNA, 2'-F at U8,G12,U16,U21,G27,U28,U30; 2'-OH at G29; all others 2'-OMe; 3' idT) [aptamer ID 3(35)]",84%,
"GGGAUACUAGGGCAUUAAUGUUACCAGUGUAGUCCC (ssRNA, 2'-F at U8,U16,U21,U28,U30; 2'-OH at G12,G27,G29; all others 2'-OMe; PS between G29 and U30) [aptamer ID 3(33)]",90%,4 nM
"GGGAUACUAGGGCAUUAAUGUUACCAGUGUAGUCCC (ssRNA, 2'-F at U8,U16,U21,U28,U30; 2'-OH at G12,G27,G29; all others 2'-OMe; 5' PEG 10K 4-branched (PTE-100CS)-C6; 3' idT) [aptamer ID 3(39)]",97%,
"GGGAUACUAGGGCAUUAAUGUUACCAGUGUAGUCCC (ssRNA, 2'-OMe at G1,G2,G3,A4,A9,G10,G11,A14,A17,A18,G20,U22,A23,A26; other C and U 2'-F; other purines 2'-OH) [aptamer ID 3(14)]",87%,12 nM

# Reference: US20170157165, “APTAMER FOR FGF2 AND USE THEREOF” (RIBOMIC INC., published 2017)
